Several values for one entry are separate records, joined by “and”; a condition that tells them apart may be missing. Equal values may be shown once. Values belong to the molecule of their own block, whether it stands above or below them.
Key:
[1] = molecular target: crRNA-guided surveillance complex (Csy complex) of the type I-F CRISPR-Cas system from P. aeruginosa (P. aeruginosa) (UniProt Q02ML9); assay: SPR; Biacore 8K, 25 °C; Csy complex immobilised on a CM5 chip (~10,000 RU), AcrIF24 injected; 20 mM HEPES pH 7.5, NaCl, 0.05% Tween-20; 1:1 Langmuir model
[2] = molecular target: AcrIF24 (full-length, wild type) (Pseudomonas aeruginosa prophage); assay: SEC-MALS; Superdex-200 10/300 GL, 20 mM HEPES pH 7.5, 200 mM NaCl; AcrIF24 1.5 mg/mL, AcrIF24ΔMD 15 mg/mL; gel filtration coupled with static light scattering
[3] = molecular target: crRNA-guided surveillance complex (Csy complex) of the type I-F CRISPR-Cas system from P. aeruginosa (P. aeruginosa) (UniProt Q02ML9); assay: SEC-MALS; mix of AcrIF24 and Csy complex (7.5 mg/mL), AcrIF24:Csy 1:1; Superdex-200 10/300 GL, 20 mM HEPES pH 7.5, 200 mM NaCl
[4] = molecular target: crRNA-guided surveillance complex (Csy complex) of the type I-F CRISPR-Cas system from P. aeruginosa (P. aeruginosa) (UniProt Q02ML9); assay: SEC-MALS; mix of AcrIF24 and Csy complex (7.5 mg/mL), AcrIF24:Csy 5:1; Superdex-200 10/300 GL, 20 mM HEPES pH 7.5, 200 mM NaCl
[5] = molecular target: crRNA-guided surveillance complex (Csy complex) of the type I-F CRISPR-Cas system from P. aeruginosa (P. aeruginosa) (UniProt Q02ML9); assay: SEC-MALS; mix of AcrIF24 and Csy complex (7.5 mg/mL), AcrIF24:Csy 1:5; Superdex-200 10/300 GL, 20 mM HEPES pH 7.5, 200 mM NaCl
[6] = molecular target: crRNA-guided surveillance complex (Csy complex) of the type I-F CRISPR-Cas system from P. aeruginosa (P. aeruginosa) (UniProt Q02ML9); assay: SEC-MALS; co-expressed and purified Csy-AcrIF24 complex, 1.5 mg/mL; Superdex-200 10/300 GL, 20 mM HEPES pH 7.5, 200 mM NaCl
[7] = molecular target: AcrIF24 Δmiddle domain (Pseudomonas aeruginosa prophage); assay: SEC-MALS; Superdex-200 10/300 GL, 20 mM HEPES pH 7.5, 200 mM NaCl; AcrIF24 1.5 mg/mL, AcrIF24ΔMD 15 mg/mL; gel filtration coupled with static light scattering
[8] = tested on: AcrIF24 (Pseudomonas aeruginosa prophage); assay: EMSA; details: EMSA: 20 mM HEPES pH 7.5, 150 mM NaCl, 5% glycerol, 37 C 30 min, 1 uM DNA (20 nM for Kd), MST: 20 mM HEPES pH 7.5, 150 mM KCl
[9] = molecular target: Csy complex;AcrIF9 (Pseudomonas aeruginosa;) (UniProt Q02ML9+Q02MM0+Q02MM1+Q02MM2); assay: MST; details: Kd only in figure, EMSA: 20 mM HEPES pH 7.5, 150 mM NaCl, 5% glycerol, 37 C 30 min, 1 uM DNA (20 nM for Kd), MST: 20 mM HEPES pH 7.5, 150 mM KCl
[10] = molecular target: Csy complex;AcrIF24 (Pseudomonas aeruginosa;Pseudomonas aeruginosa prophage) (UniProt Q02ML9+Q02MM0+Q02MM1+Q02MM2); assay: MST; details: Kd only in figure, EMSA: 20 mM HEPES pH 7.5, 150 mM NaCl, 5% glycerol, 37 C 30 min, 1 uM DNA (20 nM for Kd), MST: 20 mM HEPES pH 7.5, 150 mM KCl
[11] = tested on: AcrIF24ΔMD (Pseudomonas aeruginosa prophage); assay: EMSA; details: EMSA: 20 mM HEPES pH 7.5, 150 mM NaCl, 5% glycerol, 37 C 30 min, 1 uM DNA (20 nM for Kd), MST: 20 mM HEPES pH 7.5, 150 mM KCl
Csy complex = molecular target: T1, Csy complex (Pseudomonas aeruginosa, UniProt Q02ML9;Q02MM0;Q02MM1;Q02MM2 1-434;1-327;1-342;1-187); assay: EMSA; EMSA: 20 mM HEPES pH 7.5, 150 mM NaCl, 5% glycerol, 37 C 30 min, 1 uM DNA (20 nM for Kd); MST: 20 mM HEPES pH 7.5, 150 mM KCl, 5% glycerol; details: protein: recombinant, copies: 1;1;6;1, blunt
T1 sequence 1: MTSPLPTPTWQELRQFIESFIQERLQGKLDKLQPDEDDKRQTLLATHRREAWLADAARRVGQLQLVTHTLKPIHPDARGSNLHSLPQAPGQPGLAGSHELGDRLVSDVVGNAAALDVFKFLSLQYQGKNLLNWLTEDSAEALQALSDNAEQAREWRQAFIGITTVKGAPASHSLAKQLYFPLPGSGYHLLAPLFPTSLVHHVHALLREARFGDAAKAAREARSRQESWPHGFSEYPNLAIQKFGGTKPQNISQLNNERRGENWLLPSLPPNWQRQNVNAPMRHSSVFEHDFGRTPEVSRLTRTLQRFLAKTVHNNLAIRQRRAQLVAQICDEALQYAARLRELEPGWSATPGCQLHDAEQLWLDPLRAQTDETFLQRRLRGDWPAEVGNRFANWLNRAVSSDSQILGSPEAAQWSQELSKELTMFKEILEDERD
T1 sequence 2: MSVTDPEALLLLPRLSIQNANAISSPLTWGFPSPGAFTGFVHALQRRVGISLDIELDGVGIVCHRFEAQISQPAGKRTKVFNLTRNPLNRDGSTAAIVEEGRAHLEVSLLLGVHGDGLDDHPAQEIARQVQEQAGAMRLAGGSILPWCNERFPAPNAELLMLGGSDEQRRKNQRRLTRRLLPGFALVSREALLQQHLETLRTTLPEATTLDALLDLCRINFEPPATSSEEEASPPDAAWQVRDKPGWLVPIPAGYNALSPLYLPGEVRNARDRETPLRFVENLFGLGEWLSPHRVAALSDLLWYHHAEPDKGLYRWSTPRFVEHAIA
T1 sequence 3: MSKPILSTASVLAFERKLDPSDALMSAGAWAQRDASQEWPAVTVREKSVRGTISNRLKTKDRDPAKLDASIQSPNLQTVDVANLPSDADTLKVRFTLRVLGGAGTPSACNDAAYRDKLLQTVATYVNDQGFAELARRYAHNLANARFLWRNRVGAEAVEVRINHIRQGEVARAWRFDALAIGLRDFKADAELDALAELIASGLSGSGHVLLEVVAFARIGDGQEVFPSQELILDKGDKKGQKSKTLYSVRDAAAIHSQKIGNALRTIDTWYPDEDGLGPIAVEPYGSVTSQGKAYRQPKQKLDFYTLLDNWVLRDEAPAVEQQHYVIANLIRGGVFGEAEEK
T1 sequence 4: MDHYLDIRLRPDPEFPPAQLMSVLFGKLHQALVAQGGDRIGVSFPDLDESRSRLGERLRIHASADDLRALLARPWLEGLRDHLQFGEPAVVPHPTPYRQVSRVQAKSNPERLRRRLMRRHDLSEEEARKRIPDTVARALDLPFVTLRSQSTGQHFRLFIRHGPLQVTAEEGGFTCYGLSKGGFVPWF

Kd [1]: 0.00421 µM
koff [1]: 0.00118 s⁻¹
kon [1]: 281000 M⁻¹ s⁻¹
stoichiometry N [2]: 2
stoichiometry N (AcrIF24 per Csy complex) [3]: 1
stoichiometry N (AcrIF24 per Csy complex) [4]: 2 and 1
stoichiometry N (AcrIF24 per Csy complex) [5]: 1
Molecule: AcrIF24 (full-length, wild type) (natural protein)

stoichiometry N (AcrIF24 per Csy complex) [6]: 1
Molecule: AcrIF24 co-expressed with the Csy complex (natural protein)

stoichiometry N [7]: 2
Molecule: AcrIF24 Δmiddle domain (domain or fragment)

Molecule: GAGCGACTACGACATGAGCGCGCAGCTAAGACCGCCCGTAGATGCGTCGAGCGT (double strand) [dsDNANS 54 bp]
Kd [8]: 3.46 µM

Molecule: GAGCGACTACGACATGAGCGCGCAGCTAAGACCGCCCGTAGATGCGTCGAGCGT [ssDNANS 54 nt]
binding signal (fold weaker than ssDNASP) [9]: 10
binding signal (fold weaker than ssDNASP) [10]: 10

Molecule: GCATAGCTCGATCCGAGCTAGTA (double strand) [IR23-24 WT]
Kd [11]: 0.0491 µM
Kd [8]: 0.0202 µM

B1: dsDNASP 54 bp (dsDNA)
DNA 1: GGAAGCCATCCAGGTAGACGCGGACATCAAGCCCGCCGTGAAGGTGCAGCTGCT
DNA 2: AGCAGCTGCACCTTCACGGCGGGCTTGATGTCCGCGTCTACCTGGATGGCTTCC
binding result (Csy complex; label: 5'-FAM or 3'-FAM on target strand, unlabelled in some assays): binds

B2: dsDNANS 54 bp (dsDNA)
DNA 1: GAGCGACTACGACATGAGCGCGCAGCTAAGACCGCCCGTAGATGCGTCGAGCGT
DNA 2: ACGCTCGACGCATCTACGGGCGGTCTTAGCTGCGCGCTCATGTCGTAGTCGCTC
binding result (Csy complex; label: 5'-FAM or 3'-FAM): no binding

— article PMC9001735, “Insights into the inhibition of type I-F CRISPR-Cas system by a multifunctional anti-CRISPR protein AcrIF24”
